These results are taken from US20190040115A1 (IMMATICS BIOTECHNOLOGIES, published 2019).

For the experiment, the target named is T1, HLA-A*02:01 (human).
T1 construct: captured on streptavidin plates; also called peptide-receptive MHC molecules
Put plainly: UV peptide exchange ELISA (anti-b2m); yield grade: + >10%, ++ >20%, +++ >50, ++++ >75%. The source says: Candidate peptides for T cell based therapies according to the present invention were further tested for their MHC binding capacity (affinity). The individual peptide-MHC complexes were produced by UV-ligand exchange, where a UV-sensitive peptide is cleaved upon UV-irradiation, and exchanged with the peptide of interest as analyzed. Only peptide candidates that can effectively bind and stabilize the peptide-receptive MHC molecules prevent dissociation of the MHC complexes. To determine the yield of the exchange reaction, an ELISA was performed based on the detection of the light chain (β2m) of stabilized MHC complexes. The assay was performed as generally described in Rodenko et al. (Rodenko et al., 2006).
96 well MAXISorp plates (NUNC) were coated over night with 2 ug/ml streptavidin in PBS at room temperature, washed 4× and blocked for 1 h at 37° C. in 2% BSA containing blocking buffer. Refolded HLA-A*02:01/MLA-001 monomers served as standards, covering the range of 15-500 ng/ml. Peptide-MHC monomers of the UV-exchange reaction were diluted 100 fold in blocking buffer. Samples were incubated for 1 h at 37° C., washed four times, incubated with 2 ug/ml HRP conjugated anti-β2m for 1 h at 37° C., washed again and detected with TMB solution that is stopped with […]. Absorption was measured at 450 nm. Candidate peptides that show a high exchange yield (preferably higher than 50%, most preferred higher than 75%) are generally preferred for a generation and production of antibodies or fragments thereof, and/or T cell receptors or fragments thereof, as they show sufficient avidity to the MHC molecules and prevent dissociation of the MHC complexes.
On the technique in general: In an ELISA, binding on a coated surface is turned into a signal by an enzyme label.
For KALQFLEEV, the peptide exchange yield was greater than 75%.

With AIHTAILTL, the peptide exchange yield lay within 20 to 50%. In the case of YSDDIPHAL, the peptide exchange yield lay within 20 to 50%.

For the molecule GVVHGVATV, the peptide exchange yield is greater than 75%. For the molecule LLYEDIPDKV, the peptide exchange yield fell in the range of 50 to 75%. On to FLDSLIYGA, for which the peptide exchange yield was greater than 75%. As to KLIPSIIVL, the peptide exchange yield fell in the range of 50 to 75%. On to FAYDGKDYIA, for which the peptide exchange yield is greater than 75%.

With KLKEAVEAI, the peptide exchange yield lay within 20 to 50%. Turning to RLMANPEALKI, the peptide exchange yield is 50 to 75%. For VVVDPIQSV, the peptide exchange yield fell in the range of 50 to 75%. As to ALDEPTTNL, the peptide exchange yield was 50 to 75%. Next, RMDEEFTKI: 50 to 75%; ALMDTDGSGKLNL: 50 to 75%. As to KLAEALYIA, the peptide exchange yield was 50 to 75%. For VLAVLGAVVAV, the peptide exchange yield lay in the range of 50 to 75%. Consider FLPAGIVAV, for which the peptide exchange yield was greater than 75%. For HLFETISQA the value was 50 to 75%; for GLIDLEANYL, greater than 75%. Next, VLFSSPPVILL: greater than 75%; FLNEDISKL: 50 to 75%; SILDGLIHL: 50 to 75%.

Turning to FLDHEMVFL, the peptide exchange yield was greater than 75%. Turning to ALIEVLQPLI, the peptide exchange yield is greater than 75%. SLKSKVLSV: the peptide exchange yield is greater than 75%. As to ALFFQLVDV, the peptide exchange yield fell in the range of 20 to 50%.

For the molecule LLEEINHFL, the peptide exchange yield lay in the range of 50 to 75%. For the molecule TLDDIMAAV, the peptide exchange yield was in the range of 50 to 75%.

With TLDGNPFLV, the peptide exchange yield lay in the range of 50 to 75%. For SIIPPLFTV the value was greater than 75%; for GLFPSNFVTA, greater than 75%. On to TILATVPLV, for which the peptide exchange yield is greater than 75%.

On to SVALVIHNV, for which the peptide exchange yield is greater than 75%. Consider KLLAATLLL, for which the peptide exchange yield was greater than 75%. As for EVVDKINQV, the peptide exchange yield fell in the range of 10 to 20%. In the case of KVSGVILSV, the peptide exchange yield was greater than 75%. Next, ALDDTVLQV: 50 to 75%.

Regarding YLDKMNNNI, the peptide exchange yield was greater than 75%. As to ILADATAKM, the peptide exchange yield is greater than 75%. Regarding ALDSGFNSV, the peptide exchange yield is greater than 75%.

As for SLPRPTPQA, the peptide exchange yield is 50 to 75%. In the case of VQIGDIVTV, the peptide exchange yield is greater than 75%. On to VLDSVDVRL, for which the peptide exchange yield was greater than 75%. As to SLADVVDTL, the peptide exchange yield was greater than 75%. For TLYEQEIEV the value was greater than 75%. For KVLGDVIEV the value was greater than 75%; for VLLGENVEL, 50 to 75%; for VISPHGIASV, greater than 75%. For ALDDIIYRA the value was 50 to 75%; for TLLEGLTEL, 50 to 75%; for RVAFKINSV, 50 to 75%. On to IAAGIFNDL, for which the peptide exchange yield fell in the range of 10 to 20%.

TLLESIQHV: the peptide exchange yield is greater than 75%.

As to KLFTQIFGV, the peptide exchange yield is greater than 75%. For GLAGFFASV, the peptide exchange yield was greater than 75%.

Turning to ALEPIDITV, the peptide exchange yield lay in the range of 50 to 75%. Next, ILWDTLLRL: greater than 75%. ALDDISESI: the peptide exchange yield is greater than 75%. For SLIDRTIKM, the peptide exchange yield fell in the range of 50 to 75%.

As for TLGTATFTV, the peptide exchange yield was greater than 75%. For GLCDSIITI the value was greater than 75%.
